Measured values from patent US20040029198A1, “Method of analyzing ataxia-telangiectasia protein” (priority 2002, published 2004).

Legend:
[1] = Stability of ATM protein in whole blood; assay type: physicochemical; conditions: FIG. 3
Experimental: (§1) It has been observed that ATM protein is unstable in whole blood. […] It is therefore preferable that ATM proteins be isolated and measured shortly after extracting the cells from a patient to obtain the most reliable data. […] Table 2 compares the amount of ATM in two such samples stored at −5° C. and −70° C.

[2] = Stability of ATM in isolated PBMC samples stored at different temperatures, measured by sandwich immunoassay; assay type: physicochemical; conditions: for amount of ATM: in ng/mL (unit assumed)
Experimental: The following is a sandwich immunoassay which was performed to measure ATM protein in nuclear cell lysates and cell extracts from cell lines and peripheral blood mononuclear cells taken from normal individuals and A-T patients.
Wells of a 96-well flat bottom plate were incubated with two purified commercially available anti-ATM mouse monoclonal antibodies (ATM-2C1, GeneTex, Inc, San Antonio, Tex.; Ab-8, NeoMarkers, Fremont, Calif.) at 5 μg/ml in phosphate-buffered saline, pH 7.4 for 6 hours. After extensive washing and blocking of the wells for one hour with a solution of 3% bovine serum albumin in phosphate buffered saline containing 0.1% Tween-20, standard concentrations of purified ATM protein and nuclear cell lysates or cell extracts (see below) were added to the wells for an overnight incubation at room temperature.
After extensive washing, a rabbit anti-ATM antiserum at a 400× dilution was added to each of the wells and incubated for 3 hours at room temperature. The antiserum came from Novus Biologicals (NB 100-104, Littleton, Colo.). After washing and blocking, an HRP-conjugated goat anti-rabbit IgG antiserum at a 1:6000 dilution was added to each well and incubated for 3 hours at room temperature. The conjugate came from Jackson ImmunoResearch Laboratories (211-035-109, West Grove, Pa.).
The plate was then washed and Pierce ImmunoPure tetramethylbenzidine (TMB) substrate (34021, Rockford, Ill.) was added to each well. After color development, the reaction was stopped with 1M sulfuric acid and the color intensity was measured spectrophometrically at 450 nm. A concentration curve was generated based on signals generated for the purified ATM protein and concentrations of unknown samples were read off the standard curve.
Nuclear lysates were prepared from lymphoblastoid cell lines (EBV-infected) derived from A-T patients and healthy donors using commercially available extraction reagents and procedures (78833, Pierce, Rockford, Ill.). Whole cell extracts were generated from peripheral blood mononuclear cells and lymphoblastoid cell lines by subjecting known numbers of resuspended cells to ultrasonic energy at a 20 kHz frequency generated by a Fisher Sonic Dismembrator (model 550). The disrupted cell product was then added directly to wells of the microtiter plate without any additional manipulations.
as §1

ATM: 370 kDa protein kinase known as "ataxia-telangiectasia, mutated" (ATM), encoded by the A-T gene
stability in whole blood [1]: unstable
stability of ATM levels in a sample ([2]; PBMCs isolated from fresh blood, stored at −70° C. for 6 weeks): relatively stable
amount of ATM ([2]; stored at −5° C., week 0, 3 readings): 444 ± 22
amount of ATM ([2]; stored at −5° C., week 1, 3 readings): 126 ± 8
amount of ATM ([2]; stored at −5° C., week 2, 3 readings): 115 ± 14
amount of ATM ([2]; stored at −5° C., week 3, 3 readings): 66 ± 17
amount of ATM ([2]; stored at −5° C., week 4, 3 readings): 50 ± 10
amount of ATM ([2]; stored at −5° C., week 6, 3 readings): 32 ± 2
amount of ATM ([2]; stored at −70° C., week 0, 3 readings): 444 ± 22
amount of ATM ([2]; stored at −70° C., week 1, 3 readings): 458 ± 11
amount of ATM ([2]; stored at −70° C., week 2, 3 readings): 512 ± 63
amount of ATM ([2]; stored at −70° C., week 3, 3 readings): 424 ± 34
amount of ATM ([2]; stored at −70° C., week 4, 3 readings): 439 ± 79
amount of ATM ([2]; stored at −70° C., week 6, 3 readings): 458 ± 69
